Measured values taken from patent US20200399382A1 (ARGENX, published 2020).
Where a chain is given by its changes, count along the chain named.

T1: human IL-4Rα (SPR target) (human, UniProt P24394 26-232, limits assumed)
T1 construct: also called recombinant human IL-4Rα-Fc
T1 sequence (looked up): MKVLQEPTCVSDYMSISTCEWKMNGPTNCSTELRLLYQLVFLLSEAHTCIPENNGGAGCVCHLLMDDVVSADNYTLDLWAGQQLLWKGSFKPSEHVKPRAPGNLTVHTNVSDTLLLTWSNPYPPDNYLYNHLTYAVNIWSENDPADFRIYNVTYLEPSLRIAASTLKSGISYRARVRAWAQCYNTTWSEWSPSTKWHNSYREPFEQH

T2: human IL-4Rα on the cells of the hIL-4 proliferation assay (human, UniProt P24394 26-825)
T2 sequence (looked up): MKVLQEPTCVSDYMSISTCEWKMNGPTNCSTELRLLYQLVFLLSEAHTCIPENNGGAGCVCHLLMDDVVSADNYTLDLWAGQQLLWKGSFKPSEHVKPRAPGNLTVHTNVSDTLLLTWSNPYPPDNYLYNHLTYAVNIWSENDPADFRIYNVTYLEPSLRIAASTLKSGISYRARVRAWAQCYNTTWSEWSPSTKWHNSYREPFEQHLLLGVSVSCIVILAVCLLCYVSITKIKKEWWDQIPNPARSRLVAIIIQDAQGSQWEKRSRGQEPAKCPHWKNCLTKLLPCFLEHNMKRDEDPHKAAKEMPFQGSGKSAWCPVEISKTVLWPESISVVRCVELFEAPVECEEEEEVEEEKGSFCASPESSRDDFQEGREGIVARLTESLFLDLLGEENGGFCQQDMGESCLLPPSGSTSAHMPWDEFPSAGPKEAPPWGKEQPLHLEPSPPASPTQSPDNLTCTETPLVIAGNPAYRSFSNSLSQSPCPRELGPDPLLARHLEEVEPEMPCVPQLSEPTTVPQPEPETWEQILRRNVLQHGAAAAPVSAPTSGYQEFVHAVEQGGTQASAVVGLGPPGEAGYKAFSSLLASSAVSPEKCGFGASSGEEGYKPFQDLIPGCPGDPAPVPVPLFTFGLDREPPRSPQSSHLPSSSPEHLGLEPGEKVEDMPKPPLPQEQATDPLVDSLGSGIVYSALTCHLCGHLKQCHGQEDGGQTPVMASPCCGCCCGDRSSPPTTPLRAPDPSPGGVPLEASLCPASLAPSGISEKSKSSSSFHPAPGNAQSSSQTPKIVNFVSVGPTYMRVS

T3: human IL-5 (human, UniProt P05113 20-134)
T3 sequence (looked up): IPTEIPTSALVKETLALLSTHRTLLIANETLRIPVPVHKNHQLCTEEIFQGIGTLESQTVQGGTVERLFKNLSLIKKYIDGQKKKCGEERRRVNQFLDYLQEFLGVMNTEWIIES

T4: cynomolgus recombinant IL-4Rα (cynomolgus (table head: cyno/rhesus), UniProt A0A2K5V556 26-232)
T4 construct: Bought reagent; also called cyno/rhesus IL-4Rα; cyno IL-4Rα
T4 sequence: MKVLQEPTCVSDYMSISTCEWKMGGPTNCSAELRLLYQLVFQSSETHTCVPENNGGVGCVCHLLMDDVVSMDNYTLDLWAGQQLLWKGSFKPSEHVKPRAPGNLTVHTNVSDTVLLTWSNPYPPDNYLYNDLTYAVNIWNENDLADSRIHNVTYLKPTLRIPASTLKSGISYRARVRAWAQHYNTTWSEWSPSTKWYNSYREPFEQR

T5: mouse IL-5 (mouse, UniProt P04401 21-133)
T5 sequence (looked up): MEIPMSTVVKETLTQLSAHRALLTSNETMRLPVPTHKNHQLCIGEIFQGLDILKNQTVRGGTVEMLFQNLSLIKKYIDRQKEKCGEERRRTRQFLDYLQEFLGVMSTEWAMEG

B1: 3D6wt Fab (parental 4RMP3D6 as Fab) (Fab, V domains shown)
VH: QVQLQESGGGLVQPGGSLRLSCAASGFTFSSYSLTWVRQAPGKGLEWVSTIKARGGTTLYADSVKDRFTISRDNAKNTLYLLMNSLKPEDTAVYYCAKPLYNNFAGDFGSWGQGTTVTVSS
VL: DIQMTQSPSSLSASLGDRVTITCQASQSISSYLAWYQQKPGQAPKLLIYGGSRLQTGVPSRFSGSGSGTSFTLTISGLETEDLATYYCLQDYSWPLTFGQGTKVELK
notes: also called h4R3D6
B2: 152A07 Fab (variant of 4RMP3D6) (Fab, V domains shown)
VH: B1 VH with N102S, F104L, F108L
VL: B1 VL with V104L, L106I
notes: also called VH152A07
B3: 153E11 Fab (variant of 4RMP3D6) (Fab, V domains shown)
VH: B1 VH with D107H
VL: B1 VL with L89Q, V104L, L106I
notes: Fab from periplasmic extract, with CH1 and CK constant domains; also called VH153E11
B4: 152B10 Fab (variant of 4RMP3D6) (Fab, V domains shown)
VH: B1 VH with M83V, F104L
VL: B1 VL with T56A, S76G, L89Q, V104L, L106I
notes: Fab from periplasmic extract, with CH1 and CK constant domains; also called VH152B10
B5: 153A11 Fab (variant of 4RMP3D6) (Fab, V domains shown)
VH: B1 VH with L82Q, N102S, F104L
VL: B1 VL with P40S, D91V, V104L, L106I
notes: Fab from periplasmic extract, with CH1 and CK constant domains; also called VH153A11
B6: 150A09 Fab (variant of 4RMP3D6) (Fab, V domains shown)
VH: B1 VH with A97V, N102S
VL: B1 VL with K45R, L89Q, V104L, L106I
notes: Fab from periplasmic extract, with CH1 and CK constant domains; also called VH150A09
B7: h4R3B2 human IL-4Rα mAb (antibody, V domains shown)
VH: QLQLVESGGGLVQPGGSLRLSCAASGFTFSSYDMTWVRQAPGKGLEWVSAINSGGGSTNYADSVKGRVTISRDNAKNTLYLQMNSLKPEDTAVYFCARALRTVVHDRRLFYIDSWGQGTQVTVSS
VL: SYELTQSPSVSVALRQTAKITCGGNNIGSKSAQWYQQKPGQAPVLVIYADSRRPSGIPERFSGSNSGNTATLTVSGAQAEDEADYYCQVWDTSAVVFGGGTRLTVL
notes: also called h4RMP3B2; 4RMP3B2
B8: h4R5D1 human IL-4Rα mAb (antibody, V domains shown)
VH: QLQLVESGGGLVQPGGSLRLSCAASGFTFSSYIMSWVRQAPGKGLEWVSGISSGGGITAYADSVKGRFTISRDNAKNTLYLQMNSLKPDDTAVYYCVAGLLRVEGYWGQGTQVTVSS
VL: QTVVTQEPSLSVSPGGTVTLTCGLSSGSVTSSNYPGWYQQTPGQAPRSLIYATASRHSGVPSRYSGSISGNKATLTITGAEPEDEADYYCALHKGTYVFGGGTKLTVL
notes: also called h4RMP5D1; 4RMP5D1
B9: h4R3D6 human IL-4Rα mAb (antibody, V domains shown)
VH: B1 VH
VL: B1 VL
notes: also called 4RMP3D6
B10: h5MP90E7 human IL-5 mAb (antibody, V domains shown)
VH: EVQLVESGGGLVQPGGSLRLSCAASGFAFSSSFMSWVRQAPGKGLEWVSTINGNGGTYYADSMKGRFTISRDNVKSTVTLQMNSLKPEDTAVYYCAADWISGGYYFPALGYWGQGTQVTVSS
VL: SYELTQSPSVSVALRQTAKITCGGNNIGSKSAQWYQQKPGQAPVLVIYADSRRPSGIPERFSGSNSGNTATLTISGAQAEDEADYYCQVWDVSTNAAVFGGGTHLSVL
B11: h5MP26H7 human IL-5 mAb (antibody, V domains shown)
VH: B10 VH
VL: SYELTQSPSVSVAQTQTAKITCGGDNIGSKSVQWYQQKPGQAPVLAIYADTRRPSGIPERFSGSNSGNTATLTITGAQAEDEADYYCQVWDTSTNVAVFGGGTRLTIL
B12: h5MP90D9 human IL-5 mAb (antibody, V domains shown)
VH: B10 VH
VL: B10 VL with K30L, A32T, S51N, P58H, S75G, V92N, T94A, A97L, S106T
B13: h5MP90G7 human IL-5 mAb (antibody, V domains shown)
VH: B10 VH
VL: B10 VL with S29R, V92S, T94A, S106T
B14: h5MP90C8 human IL-5 mAb (antibody, V domains shown)
VH: B10 VH
VL: B10 VL with N25D, K38S, S51A, R52S, Q78R, V92T, S106T
B15: h5MP90A9 human IL-5 mAb (antibody, V domains shown)
VH: B10 VH
VL: B10 VL with V10L, I20M, N26K, S62A, S66A, V92I, T94A, S106T
B16: 95G7hIgG1 (IL-5 antibody 5MP95G7 as human IgG1) (antibody, V domains shown)
VH: ELQVVESGGGLVQPGGSLRLSCAASGFTFSSYGMSWVRQAPGKGLEWVSTISRGGDSTSYADSVKGRFTISKDNAKNTLYLQMNSLEPEDTAVYYCANLGRLGFGRGQGTQVTVSS
VL: SYELTQPPSVSGSPGKTLTISCAGTSSDIGDWNYVSWFQQLPGTAPKLLISEVNKRASGIPDRFSGSKSGNTASLSISGLQSEDEADYYCTSYRSGNNWVFGGGTHLTVL

biological target: T1, human IL-4Rα (SPR target); assay: SPR (Biacore 3000), periplasmic Fab over CM5 chip coated with human IL-4Rα
From the text: (§1) After 3 rounds of selection, clones were selected (from round 2 and 3), and Fab was produced from the periplasmic extracts and tested by SPR.

| Binder | R0 (binding) | koff [s⁻¹] |
| --- | --- | --- |
| B1 | 204 | 0.00053 |
| B2 | 58 | 0.00069 |
| B3 | 56 | 0.00043 |
| B4 | 110 | 0.0012 |
| B5 | 68 | 0.002 |
| B6 | 53 | 0.00084 |

biological target: T2, human IL-4Rα on the cells of the hIL-4 …; assay: cell-based or functional assay

| Binder | IC50 (nM), proliferation assay with hIL-4 (1.5 ng/mL) [nM] |
| --- | --- |
| B7 | 0.4 |
| B8 | 0.2 |
| B9 | 0.6 |

biological target: T3, human IL-5; assay: cell-based or functional assay

| Binder | IC50 (pM), proliferation assay with hIL-5 (0.25 ng/mL) [pM] |
| --- | --- |
| B10 | 8.84 |
| B11 | 37.5 |
| B12 | 6.84 |
| B13 | 1.61 |
| B14 | 6.93 |
| B15 | 4.99 |

biological target: T1, human IL-4Rα (SPR target); assay: SPR as described in Example 2

| Binder | Kd [nM] |
| --- | --- |
| B7 | 0.0818 |
| B8 | 0.0442 |
| B9 | 0.0551 |

biological target: T4, cynomolgus recombinant IL-4Rα; assay: SPR (Biacore 3000), periplasmic Fab over CM5 chip coated with cyno IL-4Rα
From the text: as §1

| Binder | R0 (binding) | koff [s⁻¹] |
| --- | --- | --- |
| B1 | 26 | 0.0017 |
| B2 | 94 | 0.0017 |
| B3 | 78 | 0.0014 |
| B4 | 170 | 0.0026 |
| B5 | 146 | 0.00033 |
| B6 | 80 | 0.002 |

biological target: T5, mouse IL-5; assay: cell-based or functional assay

| Binder | EC50 (nM), inhibition of mIL-5-induced (0.25 ng/mL) proliferation of TF-1 cells [nM] |
| --- | --- |
| B16 | 1.86 |

biological target: T3, human IL-5; assay: SPR as described in Example 2

| Binder | Kd [nM] |
| --- | --- |
| B10 | 0.129 |
| B11 | 0.0749 |
| B12 | 0.0264 |
| B13 | 0.113 |
| B14 | 0.133 |
| B15 | 0.0835 |
